B1: Partner and localizer of BRCA2 (Homo sapiens), Q86YC2 (parent)
chain: MDEPPGKPLSCEEKEKLKEKLAFLKREYSKTLARLQRAQRAEKIKHSIKKTVEEQDCLSQQDLSPQLKHSEPKNKICVYDKLHIKTHLDEETGEKTSITLDVGPESFNPGDGPGGLPIQRTDDTQEHFPHRVSDPSGEQKQKLPSRRKKQQKRTFISQERDCVFGTDSLRLSGKRLKEQEEISSKNPARSPVTEIRTHLLSLKSELPDSPEPVTEINEDSVLIPPTAQPEKGVDTFLRRPNFTRATTVPLQTLSDSGSSQHLEHIPPKGSSELTTHDLKNIRFTSPVSLEAQGKKMTVSTDNLLVNKAISKSGQLPTSSNLEANISCSLNELTYNNLPANENQNLKEQNQTEKSLKSPSDTLDGRNENLQESEILSQPKSLSLEATSPLSAEKHSCTVPEGLLFPAEYYVRTTRSMSNCQRKVAVEAVIQSHLDVKKKGFKNKNKDASKNLNLSNEETDQSEIRMSGTCTGQPSSRTSQKLLSLTKVSSPAGPTEDNDLSRKAVAQAPGRRYTGKRKSACTPASDHCEPLLPTSSLSIVNRSKEEVTSHKYQHEKLFIQVKGKKSRHQKEDSLSWSNSAYLSLDDDAFTAPFHRDGMLSLKQLLSFLSITDFQLPDEDFGPLKLEKVKSCSEKPVEPFESKMFGERHLKEGSCIFPEELSPKRMDTEMEDLEEDLIVLPGKSHPKRPNSQSQHTKTGLSSSILLYTPLNTVAPDDNDRPTTDMCSPAFPILGTTPAFGPQGSYEKASTEVAGRTCCTPQLAHLKDSVCLASDTKQFDSSGSPAKPHTTLQVSGRQGQPTCDCDSVPPGTPPPIESFTFKENQLCRNTCQELHKHSVEQTETAELPASDSINPGNLQLVSELKNPSGSCSVDVSAMFWERAGCKEPCIITACEDVVSLWKALDAWQWEKLYTWHFAEVPVLQIVPVPDVYNLVCVALGNLEIREIRALFCSSDDESEKQVLLKSGNIKAVLGLTKRRLVSSSGTLSDQQVEVMTFAEDGGGKENQFLMPPEETILTFAEVQGMQEALLGTTIMNNIVIWNLKTGQLLKKMHIDDSYQASVCHKAYSEMGLLFIVLSHPCAKESESLRSPVFQLIVINPKTTLSVGVMLYCLPPGQAGRFLEGDVKDHCAAAILTSGTIAIWDLLLGQCTALLPPVSDQHWSFVKWSGTDSHLLAGQKDGNIFVYHYS
B2: Partner and localizer of BRCA2 (Homo sapiens), Q86YC2 (parent)
chain: B1 chain
partner: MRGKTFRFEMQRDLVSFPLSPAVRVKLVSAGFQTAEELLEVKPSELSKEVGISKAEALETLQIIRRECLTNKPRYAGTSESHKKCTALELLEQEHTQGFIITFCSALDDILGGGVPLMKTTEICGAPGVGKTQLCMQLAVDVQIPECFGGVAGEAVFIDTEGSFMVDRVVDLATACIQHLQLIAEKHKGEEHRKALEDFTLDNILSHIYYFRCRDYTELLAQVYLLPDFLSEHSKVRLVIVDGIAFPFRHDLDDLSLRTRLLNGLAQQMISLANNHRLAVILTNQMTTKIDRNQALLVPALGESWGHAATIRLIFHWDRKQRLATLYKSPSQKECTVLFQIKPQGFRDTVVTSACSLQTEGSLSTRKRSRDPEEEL
B3: Partner and localizer of BRCA2 (Homo sapiens), Q86YC2 (parent)
chain: B1 chain
partner: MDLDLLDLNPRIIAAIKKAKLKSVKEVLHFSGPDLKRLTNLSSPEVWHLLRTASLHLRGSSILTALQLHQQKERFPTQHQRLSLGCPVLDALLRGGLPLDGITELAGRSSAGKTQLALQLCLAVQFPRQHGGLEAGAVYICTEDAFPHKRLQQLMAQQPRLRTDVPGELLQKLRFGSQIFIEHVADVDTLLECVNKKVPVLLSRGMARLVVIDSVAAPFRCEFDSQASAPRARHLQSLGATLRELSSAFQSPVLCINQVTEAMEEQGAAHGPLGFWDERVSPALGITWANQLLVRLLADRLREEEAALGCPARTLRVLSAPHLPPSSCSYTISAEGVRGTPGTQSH

The variants in one experiment derive from B1. The conditions noted are these: with rad51_human RAD51, Q06609.
rad51_human RAD51, Q06609, sequence (Q06609 whole entry): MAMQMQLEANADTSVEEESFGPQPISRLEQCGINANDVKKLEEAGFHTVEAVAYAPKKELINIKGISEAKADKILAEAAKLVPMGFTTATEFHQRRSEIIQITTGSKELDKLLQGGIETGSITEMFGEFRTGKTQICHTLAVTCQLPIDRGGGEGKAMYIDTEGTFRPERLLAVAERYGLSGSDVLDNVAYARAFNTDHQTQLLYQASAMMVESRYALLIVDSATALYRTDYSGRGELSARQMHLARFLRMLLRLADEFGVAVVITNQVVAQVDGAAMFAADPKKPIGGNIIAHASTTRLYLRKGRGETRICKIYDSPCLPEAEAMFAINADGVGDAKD
For the variant T1030I, the “effect of a mutation on the interaction” value is listed as “decreasing interaction”.
The same measure, in the same setting: with L939W the entry was “decreasing interaction”.

In the next experiment the parent is B2. The conditions noted are these: with ra51c_human RAD51C.
For T1030I, the “effect of a mutation on the interaction” value is recorded as “decreasing interaction”.

Variants of B3 are the subject of a further experiment. The settings on record: with xrcc3_human XRCC3, O43542.
Consider L939W, for which the “effect of a mutation on the interaction” value is reported as “decreasing interaction”.

The record behind these values is IntAct's records for PubMed 24141787.
